Here are results for one molecule from patent US20250320286A1 (Janssen / Centocor, published 2025).

The test addresses human Aβ1-42 peptide (human). The test can be described thus: sandwich ELISA, BAMB31_1 coated, JRF/cAβ42/26-HRPO detection. The procedure: For the selected Aβ3pE monoclonal antibody BAMB31, the cross-reactivity with rodent Aβ3pE-40 (SEQ ID NO:45) and human Aβ1-40 (SEQ ID NO:41), Aβ1-42 (SEQ ID NO: 48), Aβ11pE-40(SEQ ID NO:49) and Aβ11pE-42 (SEQ ID NO:50) was evaluated using synthetic peptides. The combination BAMB31 +JRF/cAβ40/28-HRPO was used to investigate the cross-reactivity with Aβ1-40 (SEQ ID NO:41), Aβ11pE-40 (SEQID NO: 49) and rodent Aβ3pE-40 (SEQ ID NO:45), and the combination BAMB31+JRF/cAβ42/26-HRPO was used to investigate the cross-reactivity with Aβ1-42 (SEQ ID NO:48) and Aβ11pE-42 (SEQ ID NO:50). Concentrations up to 10,000 pg/mL were tested.
Materials and Methods: Standards were dissolved in dimethylsulphoxide (DMSO) (Sigma) at 0.1 mg/mL and stored at −80° C. For use in ELISA, peptides were further diluted in 0.1% casein in PBS down to 1 pg/mL. Ninety-six-well-plates (Maxisorb ELISA plates; NUNC) were coated overnight at 4° C. with monoclonal antibodies from BAMB31_1 at a concentration of 1.5 μg/mL in coating buffer. The next day, plates were washed and blocked with 0.1% casein in PBS for 1-4 hours at room temperature. Standards were incubated overnight at 4° C. together with HRPO-labeled secondary antibody (JRF/cAβ40/28-HRPO or JRF/cAβ42/26-HRPO). […]

Chain of human Aβ1-42 peptide (human) (peptide, as listed by the source): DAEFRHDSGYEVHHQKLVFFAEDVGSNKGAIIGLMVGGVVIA

B1: BAMB31_1 (antibody, mouse IgG1, V domains shown)
VH: EIQLQQSGPELVKPGTSVKVSCKASGHVFTSYDMYWVKQSHGKSLEWIGYIDSDNGDTSYNQKFKGKATLTVDKSSSTAYMHLNSLTSEDSAVYYCAYYRYAMDYWGQGTSVTVSS
VL: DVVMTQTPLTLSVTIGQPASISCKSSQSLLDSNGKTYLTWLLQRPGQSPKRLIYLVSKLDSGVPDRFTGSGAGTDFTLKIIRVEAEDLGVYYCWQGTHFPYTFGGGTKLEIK
notes: Hybridoma antibody
On to B1, for which the binding result is reported as “no binding (tested: 10 ng/ml)”.
